Measurements as given in patent US20200262877A1, “ION CHANNEL-BINDING PEPTIDES AND METHODS OF USE THEREOF” (priority 2017, published 2020).

Legend:
TRPV1 = molecular target: T1, TRPV1 (Homo sapiens, UniProt Q8NER1); experiment: Ion channel panel (IonWorks Barracuda): TRPV1; type: cell-based; conditions: 100% = no change, <100% = inhibition
T1 construct: host or cells: HEK293 or CHO
Summary of the method: (§1)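 Transfected HEK293 or CHO cells were exposed for at least 5 min to peptides at 200 nM and 20 μM final, tested in duplicate, in HEPES-buffered physiological saline. Activation was taken as peptide-plus-agonist current over control current ×100, and inhibition as 1 minus that ratio ×100. Each channel's control was its own reference compound.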

Cav2.2 = molecular target: T2, Cav2.2 (Homo sapiens, UniProt Q00975); experiment: cell-based; conditions: 100% = no change, <100% = inhibition
T2 construct: host or cells: HEK293 or CHO
Summary of the method: as §1

Kv2.1 = molecular target: T3, Kv2.1 (Homo sapiens, UniProt Q14721); experiment: cell-based; conditions: 100% = no change, <100% = inhibition
T3 construct: host or cells: HEK293 or CHO
Summary of the method: as §1

Cav2.1 = molecular target: T4, Cav2.1 (Homo sapiens, UniProt O00555); experiment: cell-based; conditions: 100% = no change, <100% = inhibition
T4 construct: host or cells: HEK293 or CHO
Summary of the method: as §1

α3β4 = molecular target: T5, α3β4 (Homo sapiens, UniProt P30926+P32297); experiment: Ion channel panel (IonWorks Barracuda): α3β4; type: cell-based; conditions: 100% = no change, <100% = inhibition
T5 construct: host or cells: HEK293 or CHO
Summary of the method: as §1

GABA = experiment: Ion channel panel (IonWorks Barracuda): GABA; type: cell-based; conditions: 100% = no change, <100% = inhibition
Summary of the method: as §1

5HT3a = molecular target: T6, 5HT3a (Homo sapiens, UniProt P46098); experiment: Ion channel panel (IonWorks Barracuda): 5HT3a; type: cell-based
T6 construct: host or cells: HEK293 or CHO
T6 sequence (P46098 whole entry, looked up): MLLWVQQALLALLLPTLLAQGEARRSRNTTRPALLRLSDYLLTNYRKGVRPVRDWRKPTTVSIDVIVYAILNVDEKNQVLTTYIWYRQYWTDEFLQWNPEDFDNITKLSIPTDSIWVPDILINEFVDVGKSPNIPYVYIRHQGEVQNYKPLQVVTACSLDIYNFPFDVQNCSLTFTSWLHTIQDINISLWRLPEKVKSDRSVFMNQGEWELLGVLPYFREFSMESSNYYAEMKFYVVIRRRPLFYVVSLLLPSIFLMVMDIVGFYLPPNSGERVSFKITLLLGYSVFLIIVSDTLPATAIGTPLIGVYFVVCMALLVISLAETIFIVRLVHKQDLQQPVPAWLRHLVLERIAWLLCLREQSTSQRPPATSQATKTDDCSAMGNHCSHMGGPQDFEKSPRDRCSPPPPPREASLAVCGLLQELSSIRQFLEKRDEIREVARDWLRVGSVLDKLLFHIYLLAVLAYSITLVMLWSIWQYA
Summary of the method: as §1

α4β2 = molecular target: T7, α4β2 (Homo sapiens, UniProt P17787+P43681); experiment: Ion channel panel (IonWorks Barracuda): α4β2; type: cell-based; conditions: 100% = no change, <100% = inhibition
T7 construct: host or cells: HEK293 or CHO
Summary of the method: as §1

Kv1.3 = molecular target: T8, Kv1.3 (Homo sapiens, UniProt P22001); experiment: cell-based; type: cell-based; conditions: 100% = no change, <100% = inhibition
T8 construct: host or cells: HEK293 or CHO
Summary of the method: as §1

Kv1.1 = molecular target: T9, Kv1.1 (Homo sapiens, UniProt Q09470); experiment: cell-based; type: cell-based; conditions: 100% = no change, <100% = inhibition
T9 construct: host or cells: HEK293 or CHO
Summary of the method: as §1

Kv1.2 = molecular target: T10, Kv1.2 (Homo sapiens, UniProt P16389); experiment: cell-based; type: cell-based; conditions: 100% = no change, <100% = inhibition
T10 construct: host or cells: HEK293 or CHO
Summary of the method: as §1

hERG = hERG (Homo sapiens, UniProt Q12809); experiment: in vitro; conditions: 100% = no change, <100% = inhibition
Summary of the method: as §1

Nav1.5 = Nav1.5 (Homo sapiens, UniProt Q14524); experiment: in vitro; conditions: 100% = no change; for Activity of Nav1.5 with peptide, expressed as a percentage of the reference compound: peptide at 0.2 μM; for Activity of Nav1.5 with peptide (percentage of the reference compound): peptide at 20 μM
Summary of the method: as §1

TRPA1 = molecular target: T11, TRPA1 (Homo sapiens, UniProt O75762); experiment: Ion channel panel (IonWorks Barracuda): TRPA1; type: cell-based; conditions: 100% = no change, <100% = inhibition
T11 construct: host or cells: HEK293 or CHO
Summary of the method: as §1

Kir2.1 = molecular target: T12, Kir2.1 (Homo sapiens, UniProt P63252); experiment: Ion channel panel (IonWorks Barracuda): Kir2.1; type: cell-based; conditions: 100% = no change, <100% = inhibition
T12 construct: host or cells: HEK293 or CHO
Summary of the method: as §1

NR2A = molecular target: T13, NR2A (Homo sapiens, UniProt Q12879); experiment: Ion channel panel (IonWorks Barracuda): NR2A; type: cell-based; conditions: 100% = no change, <100% = inhibition
T13 construct: host or cells: HEK293 or CHO
Summary of the method: as §1

Nav1.7 = molecular target: T14, Nav1.7 (Homo sapiens, UniProt Q15858); experiment: cell-based; type: cell-based; conditions: 100% = no change; for Activity of Nav1.7 with peptide, expressed as a percentage of the reference compound: peptide at 0.2 μM; for Activity of Nav1.7 with peptide (percentage of the reference compound): peptide at 20 μM
T14 construct: host or cells: HEK293 or CHO

NR2B = molecular target: T15, NR2B (Homo sapiens, UniProt Q13224); experiment: Ion channel panel (IonWorks Barracuda): NR2B; type: cell-based; conditions: 100% = no change, <100% = inhibition
T15 construct: host or cells: HEK293 or CHO
Summary of the method: as §1

[1] = first of two Nav1.5 columns (probably TP1)
[2] = second of two Nav1.5 columns (probably TP2)
[3] = first of two Nav1.7 columns (probably TP1)
[4] = second of two Nav1.7 columns (probably TP2)

T14 sequence (Q15858 whole entry): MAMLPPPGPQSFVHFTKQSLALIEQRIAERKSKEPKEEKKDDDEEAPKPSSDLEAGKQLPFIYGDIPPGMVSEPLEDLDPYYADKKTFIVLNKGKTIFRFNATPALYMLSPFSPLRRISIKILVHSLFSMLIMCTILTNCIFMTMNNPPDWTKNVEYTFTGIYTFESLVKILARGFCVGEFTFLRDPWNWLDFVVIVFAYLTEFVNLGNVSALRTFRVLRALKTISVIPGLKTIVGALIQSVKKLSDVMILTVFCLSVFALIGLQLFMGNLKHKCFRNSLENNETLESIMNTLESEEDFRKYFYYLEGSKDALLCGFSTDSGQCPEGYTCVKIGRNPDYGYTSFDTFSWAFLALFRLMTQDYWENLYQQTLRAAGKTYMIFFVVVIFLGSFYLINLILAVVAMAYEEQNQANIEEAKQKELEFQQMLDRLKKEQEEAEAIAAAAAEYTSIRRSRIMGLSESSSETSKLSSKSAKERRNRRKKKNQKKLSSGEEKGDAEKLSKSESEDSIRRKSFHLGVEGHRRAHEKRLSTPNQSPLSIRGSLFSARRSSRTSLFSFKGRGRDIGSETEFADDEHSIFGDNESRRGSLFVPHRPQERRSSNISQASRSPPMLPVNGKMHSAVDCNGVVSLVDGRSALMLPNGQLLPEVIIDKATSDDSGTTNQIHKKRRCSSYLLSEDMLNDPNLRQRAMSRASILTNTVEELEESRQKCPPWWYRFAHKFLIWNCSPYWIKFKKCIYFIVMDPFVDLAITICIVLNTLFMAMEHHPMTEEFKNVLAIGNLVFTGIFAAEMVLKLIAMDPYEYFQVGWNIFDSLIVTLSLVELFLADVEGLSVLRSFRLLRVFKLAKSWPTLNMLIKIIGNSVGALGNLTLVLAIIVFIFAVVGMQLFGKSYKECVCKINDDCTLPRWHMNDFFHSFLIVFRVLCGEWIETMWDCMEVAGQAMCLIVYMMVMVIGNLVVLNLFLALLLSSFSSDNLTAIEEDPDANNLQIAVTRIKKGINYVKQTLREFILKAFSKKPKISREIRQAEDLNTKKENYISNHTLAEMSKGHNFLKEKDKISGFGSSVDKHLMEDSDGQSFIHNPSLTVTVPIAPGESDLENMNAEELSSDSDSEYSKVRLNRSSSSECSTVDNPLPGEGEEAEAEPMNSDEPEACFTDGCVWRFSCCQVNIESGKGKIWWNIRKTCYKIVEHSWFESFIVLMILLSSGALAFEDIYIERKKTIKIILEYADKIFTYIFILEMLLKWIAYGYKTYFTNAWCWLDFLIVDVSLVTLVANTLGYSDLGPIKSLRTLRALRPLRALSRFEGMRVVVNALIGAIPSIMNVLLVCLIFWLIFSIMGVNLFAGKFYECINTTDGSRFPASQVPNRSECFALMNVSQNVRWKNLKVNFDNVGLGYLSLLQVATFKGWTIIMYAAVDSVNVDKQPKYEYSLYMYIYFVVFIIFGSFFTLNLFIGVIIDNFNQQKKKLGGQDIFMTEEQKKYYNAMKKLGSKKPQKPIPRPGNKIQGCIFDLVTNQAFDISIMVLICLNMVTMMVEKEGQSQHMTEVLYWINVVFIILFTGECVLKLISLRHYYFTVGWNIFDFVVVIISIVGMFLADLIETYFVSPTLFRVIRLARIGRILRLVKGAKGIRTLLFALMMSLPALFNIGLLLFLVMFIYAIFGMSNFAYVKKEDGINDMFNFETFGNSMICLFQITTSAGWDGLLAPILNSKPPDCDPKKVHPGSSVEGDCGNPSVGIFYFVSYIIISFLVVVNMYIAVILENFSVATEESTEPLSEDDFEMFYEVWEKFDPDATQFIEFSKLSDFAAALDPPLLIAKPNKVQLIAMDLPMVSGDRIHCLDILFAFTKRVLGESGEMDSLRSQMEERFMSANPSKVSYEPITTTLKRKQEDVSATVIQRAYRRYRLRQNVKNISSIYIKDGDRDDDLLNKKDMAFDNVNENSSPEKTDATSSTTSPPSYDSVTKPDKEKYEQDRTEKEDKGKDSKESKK
Chain of Nav1.5 (Q14524 whole entry): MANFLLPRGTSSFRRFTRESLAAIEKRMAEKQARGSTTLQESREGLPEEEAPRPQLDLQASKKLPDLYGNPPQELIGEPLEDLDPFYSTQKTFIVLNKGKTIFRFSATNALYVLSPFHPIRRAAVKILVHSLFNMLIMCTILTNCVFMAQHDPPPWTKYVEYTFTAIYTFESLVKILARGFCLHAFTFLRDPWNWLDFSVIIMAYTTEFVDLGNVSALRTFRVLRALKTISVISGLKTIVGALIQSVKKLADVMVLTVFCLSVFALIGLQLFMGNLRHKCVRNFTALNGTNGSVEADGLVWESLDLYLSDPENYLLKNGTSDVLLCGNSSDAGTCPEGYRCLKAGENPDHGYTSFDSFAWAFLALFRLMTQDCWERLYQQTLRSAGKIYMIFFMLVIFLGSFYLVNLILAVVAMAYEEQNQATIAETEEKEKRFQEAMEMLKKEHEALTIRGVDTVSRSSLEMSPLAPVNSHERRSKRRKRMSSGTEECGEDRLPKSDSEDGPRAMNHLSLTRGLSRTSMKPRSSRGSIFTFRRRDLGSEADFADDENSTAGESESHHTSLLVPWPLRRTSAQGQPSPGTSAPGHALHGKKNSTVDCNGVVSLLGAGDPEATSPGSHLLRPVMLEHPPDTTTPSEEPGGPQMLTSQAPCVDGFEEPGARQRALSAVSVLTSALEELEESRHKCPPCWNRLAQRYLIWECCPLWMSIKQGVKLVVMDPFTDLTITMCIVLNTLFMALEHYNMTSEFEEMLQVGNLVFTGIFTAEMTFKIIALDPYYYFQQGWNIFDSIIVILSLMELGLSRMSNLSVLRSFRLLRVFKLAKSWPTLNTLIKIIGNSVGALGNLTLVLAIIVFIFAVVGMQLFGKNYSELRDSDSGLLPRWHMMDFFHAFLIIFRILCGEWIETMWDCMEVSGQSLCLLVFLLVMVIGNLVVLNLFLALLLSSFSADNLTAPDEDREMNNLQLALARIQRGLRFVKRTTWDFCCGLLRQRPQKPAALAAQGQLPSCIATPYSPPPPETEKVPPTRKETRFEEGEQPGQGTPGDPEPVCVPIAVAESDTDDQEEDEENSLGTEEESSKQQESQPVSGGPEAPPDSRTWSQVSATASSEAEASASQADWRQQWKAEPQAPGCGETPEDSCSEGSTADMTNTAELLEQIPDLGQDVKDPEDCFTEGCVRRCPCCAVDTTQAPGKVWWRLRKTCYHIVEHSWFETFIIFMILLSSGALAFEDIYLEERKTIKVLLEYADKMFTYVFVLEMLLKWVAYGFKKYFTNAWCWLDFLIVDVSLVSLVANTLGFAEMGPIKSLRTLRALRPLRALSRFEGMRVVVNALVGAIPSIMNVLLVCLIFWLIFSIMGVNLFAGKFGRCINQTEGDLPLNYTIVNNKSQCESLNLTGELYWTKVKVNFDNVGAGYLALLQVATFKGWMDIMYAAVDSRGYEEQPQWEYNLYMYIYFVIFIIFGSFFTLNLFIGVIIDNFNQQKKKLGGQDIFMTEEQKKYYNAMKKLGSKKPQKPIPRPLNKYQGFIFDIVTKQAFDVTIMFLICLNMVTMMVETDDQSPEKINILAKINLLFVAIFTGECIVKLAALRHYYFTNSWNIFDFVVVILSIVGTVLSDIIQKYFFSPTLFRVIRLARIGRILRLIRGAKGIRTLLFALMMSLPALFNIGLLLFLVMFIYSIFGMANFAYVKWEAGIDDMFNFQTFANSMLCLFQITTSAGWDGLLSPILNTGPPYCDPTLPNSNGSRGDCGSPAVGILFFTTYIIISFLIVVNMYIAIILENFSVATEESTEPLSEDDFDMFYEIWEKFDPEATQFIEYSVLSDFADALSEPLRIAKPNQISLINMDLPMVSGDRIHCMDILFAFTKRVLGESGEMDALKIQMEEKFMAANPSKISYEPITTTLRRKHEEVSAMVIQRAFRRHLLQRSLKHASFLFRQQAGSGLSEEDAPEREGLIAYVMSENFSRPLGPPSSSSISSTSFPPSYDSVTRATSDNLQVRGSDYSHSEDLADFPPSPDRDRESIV
T8 sequence (P22001 whole entry): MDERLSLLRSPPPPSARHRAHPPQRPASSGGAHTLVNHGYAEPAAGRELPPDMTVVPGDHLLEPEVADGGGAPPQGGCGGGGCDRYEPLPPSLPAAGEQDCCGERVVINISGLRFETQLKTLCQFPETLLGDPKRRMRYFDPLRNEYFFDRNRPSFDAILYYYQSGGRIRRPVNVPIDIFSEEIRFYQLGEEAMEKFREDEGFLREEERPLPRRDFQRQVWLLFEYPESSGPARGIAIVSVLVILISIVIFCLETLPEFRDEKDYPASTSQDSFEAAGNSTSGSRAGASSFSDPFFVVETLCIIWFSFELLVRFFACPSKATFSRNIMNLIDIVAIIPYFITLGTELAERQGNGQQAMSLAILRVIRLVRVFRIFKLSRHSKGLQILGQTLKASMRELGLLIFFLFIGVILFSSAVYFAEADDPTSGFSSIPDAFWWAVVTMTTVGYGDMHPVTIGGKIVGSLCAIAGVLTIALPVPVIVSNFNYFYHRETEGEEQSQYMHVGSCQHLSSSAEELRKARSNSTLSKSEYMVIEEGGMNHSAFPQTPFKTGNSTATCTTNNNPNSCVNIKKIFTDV
T9 sequence (Q09470 whole entry): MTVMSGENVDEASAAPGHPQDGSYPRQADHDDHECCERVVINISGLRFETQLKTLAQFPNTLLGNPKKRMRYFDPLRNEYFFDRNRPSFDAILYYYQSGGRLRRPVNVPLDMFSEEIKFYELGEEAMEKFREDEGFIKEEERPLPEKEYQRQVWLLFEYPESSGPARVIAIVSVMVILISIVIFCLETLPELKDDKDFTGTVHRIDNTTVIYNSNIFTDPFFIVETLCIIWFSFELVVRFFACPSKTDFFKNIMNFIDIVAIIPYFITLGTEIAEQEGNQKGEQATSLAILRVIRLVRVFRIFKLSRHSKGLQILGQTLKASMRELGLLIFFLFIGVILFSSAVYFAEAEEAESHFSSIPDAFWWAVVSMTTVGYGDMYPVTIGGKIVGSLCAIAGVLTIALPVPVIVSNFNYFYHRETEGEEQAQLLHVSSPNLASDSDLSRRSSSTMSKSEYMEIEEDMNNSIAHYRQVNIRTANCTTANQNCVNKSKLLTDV

36 (GSAQEPVKGPVSTKPGSCPIILIRCAMLNPPNRCLKDTDCPGIKKCCEGSCGMACFVPQ) [compound 36]
Activity of TRPV1 with peptide, expressed as a percentage of the reference compound (TRPV1; peptide at 0.2 μM): 103% | Activity of TRPV1 with peptide (percentage of the reference compound) (TRPV1; peptide at 20 μM): 69% | Activity of Cav2.2 with peptide, expressed as a percentage of the reference compound (Cav2.2; peptide at 0.2 μM): 114% | Activity of Cav2.2 with peptide (percentage of the reference compound) (Cav2.2; peptide at 20 μM): 87% | Activity of Kv2.1 with peptide, expressed as a percentage of the reference compound (Kv2.1; peptide at 0.2 μM): 104% | Activity of Kv2.1 with peptide (percentage of the reference compound) (Kv2.1; peptide at 20 μM): 92% | Activity of Cav2.1 with peptide, expressed as a percentage of the reference compound (Cav2.1; peptide at 0.2 μM): 96% | Activity of Cav2.1 with peptide (percentage of the reference compound) (Cav2.1; peptide at 20 μM): 102% | Activity of a3b4 with peptide, expressed as a percentage of the reference compound (α3β4; peptide at 0.2 μM): 95% | Activity of a3b4 with peptide (percentage of the reference compound) (α3β4; peptide at 20 μM): 87% | Activity of GABA with peptide, expressed as a percentage of the reference compound (GABA; peptide at 0.2 μM): 118% | Activity of GABA with peptide (percentage of the reference compound) (GABA; peptide at 20 μM): 106% | Activity of 5HT3a with peptide (percentage of the reference compound) (5HT3a): 83% | Activity of 5HT3a with peptide, expressed as a percentage of the reference compound (5HT3a): 81% | Activity of a4b2 with peptide, expressed as a percentage of the reference compound (α4β2; peptide at 0.2 μM): 62% | Activity of a4b2 with peptide (percentage of the reference compound) (α4β2; peptide at 20 μM): 57% | Activity of Kv1.3 with peptide, expressed as a percentage of the reference compound (Kv1.3; peptide at 0.2 μM): 96% | Activity of Kv1.3 with peptide (percentage of the reference compound) (Kv1.3; peptide at 20 μM): 93% | Activity of Kv1.1 with peptide, expressed as a percentage of the reference compound (Kv1.1; peptide at 0.2 μM): 82% | Activity of Kv1.1 with peptide (percentage of the reference compound) (Kv1.1; peptide at 20 μM): 101% | Activity of Kv1.2 with peptide, expressed as a percentage of the reference compound (Kv1.2; peptide at 0.2 μM): 91% | Activity of Kv1.2 with peptide (percentage of the reference compound) (Kv1.2; peptide at 20 μM): 87% | Activity of hERG with peptide, expressed as a percentage of the reference compound (hERG; peptide at 0.2 μM): 84% | Activity of hERG with peptide (percentage of the reference compound) (hERG; peptide at 20 μM): 65% | Activity of Nav1.5 with peptide, expressed as a percentage of the reference compound (Nav1.5; [1]): 110% | Activity of Nav1.5 with peptide, expressed as a percentage of the reference compound (Nav1.5; [2]): 109% | Activity of Nav1.5 with peptide (percentage of the reference compound) (Nav1.5; [1]): 107% | Activity of Nav1.5 with peptide (percentage of the reference compound) (Nav1.5; [2]): 112% | Activity of TRPA1 with peptide, expressed as a percentage of the reference compound (TRPA1; peptide at 0.2 μM): 106% | Activity of TRPA1 with peptide (percentage of the reference compound) (TRPA1; peptide at 20 μM): 92% | Activity of Kir2.1 with peptide, expressed as a percentage of the reference compound (Kir2.1; peptide at 0.2 μM): 108% | Activity of Kir2.1 with peptide (percentage of the reference compound) (Kir2.1; peptide at 20 μM): 91% | Activity of NR2A with peptide, expressed as a percentage of the reference compound (NR2A; peptide at 0.2 μM): 115% | Activity of NR2A with peptide (percentage of the reference compound) (NR2A; peptide at 20 μM): 103% | Activity of Nav1.7 with peptide, expressed as a percentage of the reference compound (Nav1.7; [3]): 108% | Activity of Nav1.7 with peptide, expressed as a percentage of the reference compound (Nav1.7; [4]): 118% | Activity of Nav1.7 with peptide (percentage of the reference compound) (Nav1.7; [3]): 91% | Activity of Nav1.7 with peptide (percentage of the reference compound) (Nav1.7; [4]): 71% | Activity of NR2B with peptide, expressed as a percentage of the reference compound (NR2B; peptide at 0.2 μM): 109% | Activity of NR2B with peptide (percentage of the reference compound) (NR2B; peptide at 20 μM): 96%
